# Source: patent US11202818B2, “Methods and compositions for modulating erythropoiesis” (President and Fellows of Harvard College, priority 2016, dated 2021)
# Entries after “also recorded” stand apart in the source; their conditions may differ.
# B1: MSP: Macrophage Stimulating Protein, ligand of Mst1r; R&D systems CAT #6244-MS-025 (protein)
# chain: MGLWWVTVQPPARRMGWLPLLLLLTQCLGVPGQRSPLNDFQVLRGTELQHLLHAVVPGPWQEDVADAEECAGRCGPLMDCRAFHYNVSSHGCQLLPWTQHSPHTRLRRSGRCDLFQKKDYVRTCIMNNGVGYRGTMATTVGGLPCQAWSHKFPNDHKYTPTLRNGLEENFCRNPDGDPGGPWCYTTDPAVRFQSCGIKSCREAACVWCNGEEYRGAVDRTESGRECQRWDLQHPHQHPFEPGKFLDQGLDDNYCRNPDGSERPWCYTTDPQIEREFCDLPRCGSEAQPRQEATTVSCFRGKGEGYRGTANTTTAGVPCQRWDAQIPHQHRFTPEKYACKDLRENFCRNPDGSEAPWCFTLRPGMRAAFCYQIRRCTDDVRPQDCYHGAGEQYRGTVSKTRKGVQCQRWSAETPHKPQFTFTSEPHAQLEENFCRNPDGDSHGPWCYTMDPRTPFDYCALRRCADDQPPSILDPPDQVQFEKCGKRVDRLDQRRSKLRVVGGHPGNSPWTVSLRNRQGQHFCGGSLVKEQWILTARQCFSSCHMPLTGYEVWLGTLFQNPQHGEPSLQRVPVAKMVCGPSGSQLVLLKLERSVTLNQRVALICLPPEWYVVPPGTKCEIAGWGETKGTGNDTVLNVALLNVISNQECNIKHRGRVRESEMCTEGLLAPVGACEGDYGGPLACFTHNCWVLEGIIIPNRVCARSRWPAVFTRVSVFVDWIHKVMRLG
# B2: Wnt5a: Recombinant Human/Mouse Wnt-5a, ligand of Ryk; R&D systems CAT #645-WN-010 (protein)
# chain: MAGSAMSSKFFLVALAIFFSFAQVVIEANSWWSLGMNNPVQMSEVYIIGAQPLCSQLAGLSQGQKKLCHLYQDHMQYIGEGAKTGIKECQYQFRHRRWNCSTVDNTSVFGRVMQIGSRETAFTYAVSAAGVVNAMSRACREGELSTCGCSRAARPKDLPRDWLWGGCGDNIDYGYRFAKEFVDARERERIHAKGSYESARILMNLHNNEAGRRTVYNLADVACKCHGVSGSCSLKTCWLQLADFRKVGDALKEKYDSAAAMRLNSRGKLVQVNSRFNSPTTQDLVYIDPSPDYCVRNESTGSLGTQGRLCNKTSEGMDGCELMCCGRGYDQFKTVQTERCHCKFHWCCYVKCKKCTEIVDQFVCK
# Key:
# [1] = system: embryonic day 13.5 fetal liver cells; assay: Epo-dependent erythroid colony formation (CFU-e/BFU-e) in MethoCult, fetal liver; format: cell-based, mouse
# From the text: Here, IL-17ra is expressed in the EEP region of the bBM SPRING plot (FIG. 4, Panel a) and its corresponding P2 subset (FIG. 4, Panel n), and to a lesser extent in the CEP/P1 region, in addition to its expression by non-erythroid cells. Both Ryk and mst1r are expressed more selectively, principally within the CEP/P1 region of the erythroid trajectory (FIG. 4, Panels a and n). Wnt5a, MSP and IL-17a were used to stimulate Ryk, mst1r and IL-17ra respectively, and measured their interaction with Epo, an essential erythroid cytokine, using colony formation assays (FIG. 4, Panel c). Epo concentration in blood ranges from 5-10 mU/ml in the basal state, to 10,000 mU/ml in extremely severe anemia The addition of MSP to FL in the presence of mildly elevated Epo concentrations (50 mU/ml, characteristic of mild anemia) was equivalent to a 10-fold increase in Epo concentration, generating over 2 fold the number of CFUe (day 3 unifocal) colonies. However, in the context of high Epo (>100 mU/ml), the addition of MSP was inhibitory. MSP-mediated inhibition was also seen in earlier FL progenitors and in BM progenitors of all stages. […] In summary, MSP, Wnt5a and IL-17a may provide powerful modulation of pre-ETD erythroid progenitors, in a manner that is highly dependent on their developmental stage and background state of progenitor stimulation (stress v. basal).
# In bone marrow (BM), 1117ra was expressed by EEPs/P2 and to a lesser extent by CEPs/P1, in addition to non-erythroid cells. Both Ryk and Mst1r are expressed more selectively, though not exclusively, by EEP and CEP cells (FIG. 15, Panel a, and FIG. 16, Panels a and b). Ryk, Mst1r and IL-17Ra were stimulated with their respective ligands, Wnt5a, MSP and IL-17a, using Epo-dependent erythroid colony formation as readout (FIG. 15, Panels b and c, FIG. 7). Epo concentration in blood varies from ˜10 mU/ml in health, to 10,000 mU/ml in severe anemia. […] By contrast. IL-17a mediated a potentiation of adult BM CFU-e colony formation throughout the Epo dose-response curve, giving rise to 4-fold more colonies at lower Epo (50 mU/ml), and to a ˜50% increase in colony formation when added to maximal levels of Epo (FIG. 15, Panels b. and c).
# Growth factor perturbations of erythroid colony formation: CFU-e and BFU-e colony formation assays in MethoCult (M3234 STEMCELL Technologies) were carried out on either freshly isolated bone marrow or on embryonic day 13.5 fetal liver cells from Balb/cJ mice. The following growth factors were tested: MSP/MST1 (R&D systems; CAT #6244-MS-025), Recombinant Human/Mouse Wnt-5a (R&D systems; CAT #645-WN-010) and Recombinant Murine IL17 (IL-17A) (PeproTech; CAT 4210-17). In each experiment, a range of Epo concentrations was tested, with or without added additional growth factors (MSP, Wnt5a or IL-17A) as indicated in FIG. 5 and in Extended Data FIG. 12. In addition to Epo, IL-3 (long/mL) and SCF (50ng/ mL) were added to the MethoCult in the case of BFU-e assays. Each condition was tested in quadruplicates, in at least 2 separate experiments. Colonies were scored on day 3 (for CFU-e), day 4 (for late BFU-e) and on day 7 (for early BFU-e) following staining with diaminobenzidine, to highlight hemoglobin expression.
# [2] = system: freshly isolated bone marrow; assay: Epo-dependent erythroid colony formation (CFU-e/BFU-e) in MethoCult, bone marrow; format: cell-based, mouse; conditions: BM progenitors of all stages
# From the text: Here, IL-17ra is expressed in the EEP region of the bBM SPRING plot (FIG. 4, Panel a) and its corresponding P2 subset (FIG. 4, Panel n), and to a lesser extent in the CEP/P1 region, in addition to its expression by non-erythroid cells. Both Ryk and mst1r are expressed more selectively, principally within the CEP/P1 region of the erythroid trajectory (FIG. 4, Panels a and n). Wnt5a, MSP and IL-17a were used to stimulate Ryk, mst1r and IL-17ra respectively, and measured their interaction with Epo, an essential erythroid cytokine, using colony formation assays (FIG. 4, Panel c). […]
# In bone marrow (BM), 1117ra was expressed by EEPs/P2 and to a lesser extent by CEPs/P1, in addition to non-erythroid cells. […] Ryk, Mst1r and IL-17Ra were stimulated with their respective ligands, Wnt5a, MSP and IL-17a, using Epo-dependent erythroid colony formation as readout (FIG. 15, Panels b and c, FIG. 7). […]
# Growth factor perturbations of erythroid colony formation: CFU-e and BFU-e colony formation assays in MethoCult (M3234 STEMCELL Technologies) were carried out on either freshly isolated bone marrow or on embryonic day 13.5 fetal liver cells from Balb/cJ mice. […] Colonies were scored on day 3 (for CFU-e), day 4 (for late BFU-e) and on day 7 (for early BFU-e) following staining with diaminobenzidine, to highlight hemoglobin expression.
Molecule,"effect on fetal liver erythropoiesis at low erythropoietin ([1]; FL, Epo 50 mU/ml or less)","equivalent increase in Epo concentration ([1]; FL, Epo 50 mU/ml, ligand added)","number of CFUe (day 3 unifocal) colonies generated, fold ([1]; FL, Epo 50 mU/ml, ligand added)","effect on fetal liver erythropoiesis at high Epo ([1]; FL, Epo >100 mU/ml)","effect in earlier FL progenitors ([1]; FL, earlier progenitors (BFU-e))",effect on erythroid colony formation in other contexts ([1]; contexts other than FL at Epo 50 mU/ml (FL and BM)),effect on erythroid colony formation in BM [2],effect on erythroid colony formation in FL ([1]; FL progenitors)
B1,enhance erythropoiesis,10 fold,over 2 fold,inhibitory; also recorded: inhibit erythropoiesis,inhibition,inhibitory,inhibition; also recorded: inhibitory effect,
B2,,,,,,,consistent and potent inhibitor,consistent and potent inhibitor
